Assay results: patent publication US20240000840A1

Target: CD20 on CD20+ human Burkitt's lymphoma cell lines (Ramos, Raji) (human) (UniProt P11836)
Experiment: cell-based or functional assay

Sequence of UniProt P11836 (P11836 whole entry): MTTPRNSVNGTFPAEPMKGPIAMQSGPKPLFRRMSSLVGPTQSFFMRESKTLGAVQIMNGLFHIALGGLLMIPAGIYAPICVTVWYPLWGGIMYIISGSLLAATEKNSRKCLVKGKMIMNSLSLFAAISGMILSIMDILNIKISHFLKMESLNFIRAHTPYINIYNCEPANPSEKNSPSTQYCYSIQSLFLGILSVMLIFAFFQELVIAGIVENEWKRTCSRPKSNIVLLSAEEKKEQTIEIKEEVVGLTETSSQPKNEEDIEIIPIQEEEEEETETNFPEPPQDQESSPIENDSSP

## Rituximab (Mabthera or Rituxan) (antibody)
  % of Raji alive, AB-101 + RTX, 24 h, batch 19AB101PN001: 13.8%
  % of Raji alive, AB-101 + RTX, 24 h, batch 19AB101PN004: 21.1%
  % of Raji alive, AB-101 + RTX, 24 h, batch 19AB101PN005: 34.1%
  % of Raji alive, AB-101 + RTX, 24 h, batch 20AB101PG001: 25.8%
  % of Raji alive, AB-101 + RTX, 24 h, batch 20AB101PG002: 14.3%
  % of Raji alive, AB-101 + RTX, 24 h, batch 20AB101PN001: 16.8%
  % of Raji alive, AB-101 + RTX, 24 h, batch 20AB101PN002: 26.6%
  % of Raji alive, AB-101 + RTX, 24 h, batch 20AB101PN003: 28.4%
  % of Raji alive, AB-101 + RTX, 24 h, batch 20AB101PN004: 34.3%
  % of Raji alive, AB-101 + RTX, 48 h, batch 19AB101PN001: 6.6%
  % of Raji alive, AB-101 + RTX, 48 h, batch 19AB101PN004: 8.9%
  % of Raji alive, AB-101 + RTX, 48 h, batch 19AB101PN005: 18.6%
  % of Raji alive, AB-101 + RTX, 48 h, batch 20AB101PG001: 11.7%
  % of Raji alive, AB-101 + RTX, 48 h, batch 20AB101PG002: 5.5%
  % of Raji alive, AB-101 + RTX, 48 h, batch 20AB101PN001: 9.2%
  % of Raji alive, AB-101 + RTX, 48 h, batch 20AB101PN002: 12.5%
  % of Raji alive, AB-101 + RTX, 48 h, batch 20AB101PN003: 13.3%
  % of Raji alive, AB-101 + RTX, 48 h, batch 20AB101PN004: 18.6%
  % of Raji alive, AB-101 + RTX, 72 h, batch 19AB101PN001: 4.5%
  % of Raji alive, AB-101 + RTX, 72 h, batch 19AB101PN004: 9.4%
  % of Raji alive, AB-101 + RTX, 72 h, batch 19AB101PN005: 11.5%
  % of Raji alive, AB-101 + RTX, 72 h, batch 20AB101PG001: 9.6%
  % of Raji alive, AB-101 + RTX, 72 h, batch 20AB101PG002: 3.6%
  % of Raji alive, AB-101 + RTX, 72 h, batch 20AB101PN001: 7.5%
  % of Raji alive, AB-101 + RTX, 72 h, batch 20AB101PN002: 13.9%
  % of Raji alive, AB-101 + RTX, 72 h, batch 20AB101PN003: 12.3%
  % of Raji alive, AB-101 + RTX, 72 h, batch 20AB101PN004: 18.3%
  % of Ramos alive, AB-101 + RTX, 24 h, AVE of 9 batches (raw data table; differs from 47.6 in Table 26): 47.9%
  % of Ramos alive, AB-101 + RTX, 24 h, batch 19AB101PN001: 29.5%
  % of Ramos alive, AB-101 + RTX, 24 h, batch 19AB101PN004: 37.1%
  % of Ramos alive, AB-101 + RTX, 24 h, batch 19AB101PN005: 59.7%
  % of Ramos alive, AB-101 + RTX, 24 h, batch 20AB101PG001: 54.1%
  % of Ramos alive, AB-101 + RTX, 24 h, batch 20AB101PG002: 22.1%
  % of Ramos alive, AB-101 + RTX, 24 h, batch 20AB101PN001: 46.2%
  % of Ramos alive, AB-101 + RTX, 24 h, batch 20AB101PN003: 57.7%
  % of Ramos alive, AB-101 + RTX, 24 h, batch 20AB101PN004: 54.8%
  % of Ramos alive, AB-101 + RTX, 48 h, batch 19AB101PN001: 12.1%
  % of Ramos alive, AB-101 + RTX, 48 h, batch 19AB101PN004: 18.6%
  % of Ramos alive, AB-101 + RTX, 48 h, batch 19AB101PN005: 38.1%
  % of Ramos alive, AB-101 + RTX, 48 h, batch 20AB101PG001: 37.4%
  % of Ramos alive, AB-101 + RTX, 48 h, batch 20AB101PG002: 7.7%
  % of Ramos alive, AB-101 + RTX, 48 h, batch 20AB101PN001: 22.8%
  % of Ramos alive, AB-101 + RTX, 48 h, batch 20AB101PN002: 53%
  % of Ramos alive, AB-101 + RTX, 48 h, batch 20AB101PN003: 34.4%
  % of Ramos alive, AB-101 + RTX, 48 h, batch 20AB101PN004: 29.2%
  % of Ramos alive, AB-101 + RTX, 72 h, batch 19AB101PN001: 6.6%
  % of Ramos alive, AB-101 + RTX, 72 h, batch 19AB101PN004: 11.4%
  % of Ramos alive, AB-101 + RTX, 72 h, batch 19AB101PN005: 30.9%
  % of Ramos alive, AB-101 + RTX, 72 h, batch 20AB101PG001: 23.5%
  % of Ramos alive, AB-101 + RTX, 72 h, batch 20AB101PG002: 4.1%
  % of Ramos alive, AB-101 + RTX, 72 h, batch 20AB101PN001: 11%
  % of Ramos alive, AB-101 + RTX, 72 h, batch 20AB101PN002: 40.3%
  % of Ramos alive, AB-101 + RTX, 72 h, batch 20AB101PN003: 21.8%
  % of Ramos alive, AB-101 + RTX, 72 h, batch 20AB101PN004: 21.3%
  Viable Raji cells (%), AB-101 + RTX, 24 hrs, mean of 9 AB-101 batches (long-term ADCC, IncuCyte): 23.9%
  Viable Raji cells (%), AB-101 + RTX, 48 hrs, mean of 9 AB-101 batches (long-term ADCC, IncuCyte): 11.7%
  Viable Raji cells (%), AB-101 + RTX, 72 hrs, mean of 9 AB-101 batches (long-term ADCC, IncuCyte): 10.1%
  Viable Ramos cells (%), AB-101 + RTX, 24 hrs, mean of 9 AB-101 batches (long-term ADCC, IncuCyte): 47.6%
  Viable Ramos cells (%), AB-101 + RTX, 48 hrs, mean of 9 AB-101 batches (long-term ADCC, IncuCyte): 28.1%
  Viable Ramos cells (%), AB-101 + RTX, 72 hrs, mean of 9 AB-101 batches (long-term ADCC, IncuCyte): 19%
  lysis of target cells (Raji), AB-101 combined with rituximab, end of the 72 hour co-culture, E:T 1:1 (live-cell analysis, Example 9): 90%
  lysis of target cells (Ramos), AB-101 combined with rituximab, end of 72 hrs co-culture, E:T 1:1 (live-cell analysis, Example 9): 80%
